The source of these data is patent US20230082465A1 (Hoffmann-La Roche, published 2023).

The term KD denotes a measure of binding affinity in units of concentration.

The target in assay [1] is T1, Fragment E (human, UniProt P02671 20-97; P02675 84-152; P02679 27-79, limits assumed).
T1 construct: domain: Fragment E
T1 sequence (looked up) 1: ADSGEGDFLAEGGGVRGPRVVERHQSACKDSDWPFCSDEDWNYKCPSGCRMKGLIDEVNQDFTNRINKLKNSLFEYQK
T1 sequence (looked up) 2: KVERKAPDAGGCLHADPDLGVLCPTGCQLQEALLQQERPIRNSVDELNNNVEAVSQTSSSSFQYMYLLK
T1 sequence (looked up) 3: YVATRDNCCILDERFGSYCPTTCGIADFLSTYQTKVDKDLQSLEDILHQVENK
As to the kind of experiment: BLI Octet, Example 4, FIG. 5. For orientation: BLI is a label-free optical method that tracks binding on a fibre tip over time.

Assay [2] deals with T2, Fragment E from fibrinogen (UniProt P02671 20-97; P02675 84-152; P02679 27-79, limits assumed).
T2 construct: domain: Fragment E from fibrinogen; also called E (Fibrinogen)
T2 sequence (looked up) 1: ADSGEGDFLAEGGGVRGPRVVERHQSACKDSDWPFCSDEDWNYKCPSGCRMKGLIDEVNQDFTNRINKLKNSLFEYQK
T2 sequence (looked up) 2: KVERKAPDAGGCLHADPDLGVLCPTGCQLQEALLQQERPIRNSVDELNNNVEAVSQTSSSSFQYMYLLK
T2 sequence (looked up) 3: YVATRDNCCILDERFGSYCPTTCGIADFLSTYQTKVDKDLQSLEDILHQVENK
As to the kind of experiment: BLI Octet Red96e, biotinylated antibody on streptavidin tips.

The target of assay [3] is T3, Fragment E from fibrin (UniProt P02671 36-97; P02675 84-152; P02679 27-88, limits assumed).
T3 construct: domain: Fragment E from fibrin; also called E (Fibrin)
T3 sequence (looked up) 1: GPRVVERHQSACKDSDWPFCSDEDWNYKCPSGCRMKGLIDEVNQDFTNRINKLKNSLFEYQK
T3 sequence (looked up) 2: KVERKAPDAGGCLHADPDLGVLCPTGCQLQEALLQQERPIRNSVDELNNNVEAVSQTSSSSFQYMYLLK
T3 sequence (looked up) 3: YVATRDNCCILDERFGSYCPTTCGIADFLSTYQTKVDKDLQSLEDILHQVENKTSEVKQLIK
The assay is described as above.

The target in assay [4] is T4, Fibrinogen Fragment D (human, UniProt P02671 124-216; P02675 164-491; P02679 89-437, limits assumed).
T4 construct: domain: Fibrinogen Fragment D; Made in-house by digesting purified human fibrinogen with plasmin, then purified by SEC; also called fragment D from fibrinogen; D (Fibrinogen)
T4 sequence (looked up) 1: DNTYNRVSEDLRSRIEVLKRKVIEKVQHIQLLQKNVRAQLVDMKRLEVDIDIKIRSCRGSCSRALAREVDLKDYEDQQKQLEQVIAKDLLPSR
T4 sequence (looked up) 2: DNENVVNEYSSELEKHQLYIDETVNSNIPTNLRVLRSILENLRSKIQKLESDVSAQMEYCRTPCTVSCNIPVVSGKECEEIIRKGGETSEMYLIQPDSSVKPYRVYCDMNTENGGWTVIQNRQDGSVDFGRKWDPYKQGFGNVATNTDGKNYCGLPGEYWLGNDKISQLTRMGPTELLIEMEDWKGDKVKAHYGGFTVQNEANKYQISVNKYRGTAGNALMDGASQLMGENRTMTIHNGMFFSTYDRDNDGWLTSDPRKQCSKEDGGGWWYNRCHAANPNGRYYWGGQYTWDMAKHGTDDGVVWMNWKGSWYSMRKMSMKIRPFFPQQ
T4 sequence (looked up) 3: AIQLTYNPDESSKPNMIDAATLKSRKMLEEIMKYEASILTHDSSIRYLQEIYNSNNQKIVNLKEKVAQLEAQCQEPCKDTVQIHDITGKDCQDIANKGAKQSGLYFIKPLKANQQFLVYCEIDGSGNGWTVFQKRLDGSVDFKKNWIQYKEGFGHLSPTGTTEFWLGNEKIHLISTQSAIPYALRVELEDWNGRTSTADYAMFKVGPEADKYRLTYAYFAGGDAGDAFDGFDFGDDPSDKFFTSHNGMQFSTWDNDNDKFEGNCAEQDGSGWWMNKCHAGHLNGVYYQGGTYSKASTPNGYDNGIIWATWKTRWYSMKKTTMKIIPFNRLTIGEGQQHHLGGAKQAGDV
As to the kind of experiment: BLI Octet Red96e, biotinylated antibody on streptavidin tips; KD grade + = >=10^-8 M. How it is done:
(§1) The same set of mAbs were subjected to binding studies with fibrinogen, D-Dimer, and purified fibrin and fibrinogen fragments (see Table 2) using the BLI Octet Red96e system from Sartorius. KD was measured by loading biotinylated antibody samples on streptavidin BLI tips and introducing serial dilutions of prepared fragments. […] The experiments were conducted at room temperature and pressure.

For assay [5], the target named is T5, Fibrinogen Fragment X (human, UniProt P02671 20-238; P02675 73-491; P02679 27-437, limits assumed).
T5 construct: domain: Fibrinogen Fragment X; Made in-house by digesting purified human fibrinogen with plasmin, then purified by SEC; also called X (Fibrinogen)
T5 sequence (looked up) 1: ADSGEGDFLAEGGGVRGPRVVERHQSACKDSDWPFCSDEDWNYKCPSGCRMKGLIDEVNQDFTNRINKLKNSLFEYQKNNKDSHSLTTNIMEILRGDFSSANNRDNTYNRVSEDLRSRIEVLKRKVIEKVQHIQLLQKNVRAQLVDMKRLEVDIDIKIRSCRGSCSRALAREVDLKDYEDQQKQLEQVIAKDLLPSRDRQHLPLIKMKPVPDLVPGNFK
T5 sequence (looked up) 2: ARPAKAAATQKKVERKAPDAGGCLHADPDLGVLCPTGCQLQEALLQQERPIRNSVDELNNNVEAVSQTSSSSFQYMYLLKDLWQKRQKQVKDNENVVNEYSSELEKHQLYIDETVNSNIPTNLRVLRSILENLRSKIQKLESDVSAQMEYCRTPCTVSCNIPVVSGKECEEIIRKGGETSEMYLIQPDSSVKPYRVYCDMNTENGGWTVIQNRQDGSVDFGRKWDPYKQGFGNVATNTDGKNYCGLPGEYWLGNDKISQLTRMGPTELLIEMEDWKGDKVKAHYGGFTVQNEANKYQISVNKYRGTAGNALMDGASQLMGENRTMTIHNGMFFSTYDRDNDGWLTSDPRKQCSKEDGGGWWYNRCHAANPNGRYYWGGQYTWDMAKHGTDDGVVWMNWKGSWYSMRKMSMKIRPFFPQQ
T5 sequence (looked up) 3: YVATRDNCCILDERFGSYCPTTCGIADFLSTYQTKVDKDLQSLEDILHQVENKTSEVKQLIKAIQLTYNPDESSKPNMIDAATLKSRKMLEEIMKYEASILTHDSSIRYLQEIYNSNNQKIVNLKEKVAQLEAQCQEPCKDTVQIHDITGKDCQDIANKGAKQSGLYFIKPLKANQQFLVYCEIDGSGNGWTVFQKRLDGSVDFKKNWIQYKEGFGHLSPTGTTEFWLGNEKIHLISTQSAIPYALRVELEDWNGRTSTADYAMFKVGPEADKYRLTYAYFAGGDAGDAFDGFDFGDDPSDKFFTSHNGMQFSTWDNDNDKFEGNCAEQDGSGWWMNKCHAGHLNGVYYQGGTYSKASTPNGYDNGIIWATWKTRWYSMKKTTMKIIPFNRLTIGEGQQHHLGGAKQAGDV
Described as above. How it is done:
as §1

In assay [6] the target is T6, Fibrinogen Fragment Y (human, UniProt P02671 20-225; P02675 73-491; P02679 27-437, limits assumed).
T6 construct: domain: Fibrinogen Fragment Y; Made in-house by digesting purified human fibrinogen with plasmin, then purified by SEC; also called Y (Fibrinogen)
T6 sequence (looked up) 1: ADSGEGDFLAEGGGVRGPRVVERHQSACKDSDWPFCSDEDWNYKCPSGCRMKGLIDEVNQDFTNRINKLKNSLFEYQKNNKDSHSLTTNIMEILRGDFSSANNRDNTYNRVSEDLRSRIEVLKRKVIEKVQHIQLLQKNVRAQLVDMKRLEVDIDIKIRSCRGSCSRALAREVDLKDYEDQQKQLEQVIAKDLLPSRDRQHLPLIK
T6 sequence (looked up) 2: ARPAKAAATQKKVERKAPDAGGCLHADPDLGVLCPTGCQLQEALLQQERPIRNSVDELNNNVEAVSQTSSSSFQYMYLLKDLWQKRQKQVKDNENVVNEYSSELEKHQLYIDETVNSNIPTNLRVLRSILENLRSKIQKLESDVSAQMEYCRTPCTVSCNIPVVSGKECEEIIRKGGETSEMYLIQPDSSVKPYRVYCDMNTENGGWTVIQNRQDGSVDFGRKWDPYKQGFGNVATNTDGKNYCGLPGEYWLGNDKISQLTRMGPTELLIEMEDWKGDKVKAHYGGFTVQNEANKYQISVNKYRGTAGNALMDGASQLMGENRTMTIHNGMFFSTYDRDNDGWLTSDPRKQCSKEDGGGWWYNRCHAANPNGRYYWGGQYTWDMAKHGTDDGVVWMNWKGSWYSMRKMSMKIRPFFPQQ
T6 sequence (looked up) 3: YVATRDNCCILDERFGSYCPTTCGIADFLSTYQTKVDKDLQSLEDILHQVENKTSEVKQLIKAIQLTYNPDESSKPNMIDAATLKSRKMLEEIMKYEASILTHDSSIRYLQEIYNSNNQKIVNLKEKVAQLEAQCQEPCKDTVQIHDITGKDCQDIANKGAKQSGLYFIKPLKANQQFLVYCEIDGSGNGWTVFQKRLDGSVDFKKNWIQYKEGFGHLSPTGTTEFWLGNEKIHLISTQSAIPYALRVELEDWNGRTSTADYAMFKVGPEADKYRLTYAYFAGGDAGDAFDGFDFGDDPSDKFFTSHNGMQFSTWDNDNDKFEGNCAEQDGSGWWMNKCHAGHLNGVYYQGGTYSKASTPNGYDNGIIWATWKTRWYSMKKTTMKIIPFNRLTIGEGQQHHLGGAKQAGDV
Described as above. The procedure: as §1

B1: recombinant antibody #12 (antibody, V domains shown)
VH: QVQLQQPGAEVVRPGASVKLSCKASGYSFTSYWIHWLKQGPHQGLEWIGRIDPDDSETHYNQKFKDKALLTVDKSSSTAYMQLRSLTSEDSAVYYCARTNWDAWFAYWGQGTLVTVSA
VL: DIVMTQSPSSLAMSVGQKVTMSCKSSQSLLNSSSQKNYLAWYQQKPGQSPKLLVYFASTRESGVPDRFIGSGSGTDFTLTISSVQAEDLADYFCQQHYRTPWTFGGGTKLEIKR
notes: The heavy chain is truncated after the murine IgG2a hinge and has no Fc; also called Ab#12; Ab#12 (Grifols)
With B1, the binding result in assay [1], in assay [2] and in assay [3] was “no binding” each time. In addition, the KD in assay [4], in assay [5] and in assay [6] was ≥ 10 nM each time.
